In patent US9752168B2, “Compositions comprising a polypeptide having cellulolytic enhancing activity and a quinone compound and uses thereof” (priority 2010, dated 2017):

How the values were obtained:
[1] = tested on: Trichoderma reesei cellulase composition; assay: Hydrolysis of AVICEL® (microcrystalline cellulose) by the T. reesei cellulase composition; settings: no quinone compound, cellulase 4 mg protein/g cellulose, GH61 polypeptide where present 0.4 mg/g cellulose (10% w/w of cellulase)
[2] = tested on: T. reesei cellulase composition; assay: Enhancement of microcrystalline cellulose cellulolysis by the T. reesei cellulase composition using combinations of compounds and various GH61 polypeptides; settings: mixtures of compounds at 3 mM

B1: A. fumigatus GH61B polypeptide: GH61 polypeptide having cellulolytic enhancing activity (SEQ ID NO: 30), recombinantly prepared according to WO 2010/138754 (protein, listed as Aspergillus fumigatus)
chain: MTLSKITSIAGLLASASLVAGHGFVSGIVADGKYYGGYLVNQYPYMSNPPDTIAWSTTATDLGFVDGTGYQSPDIICHRDAKNGKLTATVAAGSQIEFQWTTWPESHHGPLITYLAPCNGDCATVDKTTLKFVKIAAQGLIDGSNPPGVWADDEMIANNNTATVTIPASYAPGNYVLRHEIIALHSAGNLNGAQNYPQCFNIQITGGGSAQGSGTAGTSLYKNTDPGIKFDIYSDLSGGYPIPGPALFNA
- Percent conversion of AVICEL® ([1]; 1 day): 13.7±0.2%
- Percent conversion of AVICEL® ([1]; 3 days): 29±1%
- Percent conversion of AVICEL® ([1]; 7 days): 46±2%
- overall conversion of AVICEL®, comparison among GH61 polypeptides [2]: highest overall conversion
